The results in this text go back to the supplement of paper PMC9170038.

The test system of this data set is MS2 coat protein. As to the kind of experiment: apparent KD of MS2 coat protein; designed switch direction (-1 OFF switch, 1 ON switch): -1; higher = weaker reporter binding. The gist of the method: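 SNAP-549-labelled MS2 coat protein was titrated, doubling from 0.7 or 1.5 nM to 3 µM, over designed RNA switches transcribed on Illumina chips by stalled E. coli RNA polymerase. Runs were done without input, with 200 uM small-molecule ligand, or with an oligonucleotide input. Apparent KD is the per-design median over clusters of curve-fitted normalised fluorescence.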

[1] abbreviates: Eterna round: R95, input ligand: microRNA oligo, concentration not stated.
[2] abbreviates: input ligand: microRNA oligo, concentration not stated.
Setting [3] is: Eterna round: R95, input ligand: FMN 200 uM.
Setting [4] is: Eterna round: R95, input ligand: none.

For the sequence “AAUAGUCAAGUUAGGAUAUUGCACCAGUGAUGGACCAAGAAGGAACAUGAGGAUCACCCAUGUGAACUCACGAC [Eternabot (Original) Solution 3] (Eterna round: R97, puzzle: Brourd's mod of Exclusion 4)”, the “apparent KD of MS2 coat protein” value (input ligand: FMN 200 uM) is 344 nM and the “apparent KD of MS2 coat protein” value (input ligand: none) was found to be 40.8 nM.

Regarding “GUUAAACAUGAGGAUCACCCAUGUAAGGAUAUGCUGCGGUCGAGAUGAAGUGAAUGCAGCAGAAGGUACAAUUG [Mat - Mod of JL D53] (puzzle: Exclusion 1)”, under setting [1], the “apparent KD of MS2 coat protein” value is 148 nM.

As to “UAUAGGCGAGGAUAUACUAACAAACGGAUCGCCAAACAAGAACUUGAGGAUCACCCAAGUAGAAGGCGCAAUUG [Gezaonsoma] (Eterna round: R97, puzzle: Exclusion 2)”, the “apparent KD of MS2 coat protein” value by setting is: (input ligand: FMN 200 uM) 15.8 nM; (input ligand: none) 24.1 nM.

For the sequence “UAGUUAUUCACAGGAUAUCGCCUCUUAUUACAUGAGGAUCACCCAUGUUUAUUUUGUUACAUGUUCGAGAAGGGUGUAGCCGUU [JR_ExcNG2_Sub045] (Eterna round: R96, puzzle: Exclusion NG 2)”, the “apparent KD of MS2 coat protein” value under setting [2] was found to be 258 nM.

As to “UAAUAACAAGCGAGAUCCUACAUGAGGAUCACCCAUGUGCUCGUCUUAUAAAGUACUAUCACGAAAGUGAUAGUACA [Mat - Sensor v3 - turn-off var 1 - Eli Mod - D61] (puzzle: Sensor v3, turn-off variant 1)”, the “apparent KD of MS2 coat protein” value is 17.1 nM under setting [3], 49.5 nM under setting [1] and 19.2 nM under setting [4].

Turning to “AUAAAUAACGUUAGGAUAUAUUUUGUGACAUCAGGAUAGAAGGAACAUGAGGAUCACCCAUGUGAUUCUGUGAA [Maenin] (puzzle: Brourd's mod of Exclusion 4)”, the “apparent KD of MS2 coat protein” value by setting is: under setting [3], 46.6 nM; under setting [1], 37.2 nM; under setting [4], 40.3 nM.

On to “AAGCAGUCAGGAUAUCGUUAAUUUAGUUGUUUGUAUUAGUUCGAGAAGGGACAUGAGGAUCACCCAUGUAAGAA [Ex4 #43] (Eterna round: R97, puzzle: Exclusion 4)”, for which the “apparent KD of MS2 coat protein” value runs as follows: (input ligand: FMN 200 uM) 40.5 nM; (input ligand: none) 41 nM.

For “GCAACGCUGAAAGGAUAUGUUGACCGAGAGACAACAGAAGGUUCCGCACAUGAGGAUCACCCAUGUGAUCGUAAAAGAGCAAGC [Eternabot solution 18] (Eterna round: R96, puzzle: Exclusion NG 1)”, the “apparent KD of MS2 coat protein” value was determined as 99.5 nM (input ligand: FMN 200 uM), 35.9 nM under setting [2] and 48.1 nM (input ligand: none).

As for “UGUCAGAUGGUAGGAUAUCCAUAUCGAGUGACCCUUUCAUAACAUGAGGAUCACCCAUGUUGGUGGGAGAAGGGCCGUAUGGUG [salish99_ExNG02_R04_026] (Eterna round: R96, puzzle: Exclusion NG 2)”, the “apparent KD of MS2 coat protein” value runs as follows: (input ligand: FMN 200 uM) 13.2 nM; under setting [2], 12.7 nM; (input ligand: none) 15.5 nM.

Consider “UAAGGGUGCGUAGGAUAUCGCGGCCGAAUAAAGCGAGAAGGACGCCCGAAUGGGUCGUCCAACAUGAGGAUCACCCAUGUAAAC [Soerre] (Eterna round: R96, puzzle: Exclusion NG 1)”, for which the “apparent KD of MS2 coat protein” value runs as follows: (input ligand: FMN 200 uM) 140 nM; under setting [2], 36.5 nM; (input ligand: none) 50.2 nM.

Take “GGCAGACAUGAGGAUCACCCAUGUCAGGAUAUGGUGCGAUCGUCGAUAGACGAUAGCACCAGAAGGGACAUGCC [Mat - Exclusion 1 - Eli Mod - D3] (Eterna round: R97, puzzle: Exclusion 1)”: the “apparent KD of MS2 coat protein” value by setting is: (input ligand: FMN 200 uM) 39.7 nM; (input ligand: none) 21.4 nM.

For “UGCUAGUCAGGAUAUACGAACAUGUCAAAAGACGUGAAGGGACAUGAGGAUCACCCAUGUAGAAGGGACUAGCU [salish99_ex2_r3_006] (puzzle: Exclusion 2)”, the “apparent KD of MS2 coat protein” value reads like this: under setting [3], 165 nM; under setting [1], 25.2 nM; under setting [4], 27.1 nM.

Regarding “CCGAUAAUGUAGGAUAUCGUAUCGGAAACGAUACGAGAAGGGCAAACAUGAGGAUCACCCAUGUUCCUUAACGG [Mat - Exclusion 6 - Eli Mod - D72] (puzzle: Exclusion 6)”, the “apparent KD of MS2 coat protein” value under setting [1] was determined as 15.8 nM.

With “CUUCGUAUAGAGGAUAUAGGUUACUACGGUAUCCUAGAAGGCUGUACAUGAGGAUCACCCAUGUACUUCAGAUC [Exclusion 6 - B - 13:d] (puzzle: Exclusion 6)”, the “apparent KD of MS2 coat protein” value under setting [1] was 12.2 nM.

In the case of “CAGUAUCUAGGAUAUACGCUGGGUACUAUUCUCAAGUCAGGACAUGAGGAUCACCCAUGUAGAAGGAGAAGCAU [EX2 A.28] (Eterna round: R97, puzzle: Exclusion 2)”, the “apparent KD of MS2 coat protein” value is, setting by setting: (input ligand: FMN 200 uM) 32.5 nM; (input ligand: none) 34 nM.

As to “AUAAAUCAUGUAGGAUAUGCGUGGCGAAGCUAUGCAGAAGGACAUGAGGAUCACCCAUGUGCUUGCGUCUGAGUACAGAUGCUA [Mat - Exclusion NG 1 - Mod of JL - D6] (Eterna round: R96, puzzle: Exclusion NG 1)”, the “apparent KD of MS2 coat protein” value runs as follows: (input ligand: FMN 200 uM) 264 nM; under setting [2], 77.1 nM; (input ligand: none) 91.8 nM.

Turning to “GGUAGCUGAGGAUAUGCAGACGACCCUCAGUGCUGGCUUGCACAUGAGGAUCACCCAUGUAGAAGGCAGAAGCU [Eternabot (L2) Solution 5] (Eterna round: R97, puzzle: Exclusion 2)”, the “apparent KD of MS2 coat protein” value (input ligand: FMN 200 uM) was 56 nM and the “apparent KD of MS2 coat protein” value (input ligand: none) was 57.5 nM.

Turning to “CGCUGGACAGGAUAUGUUCUUGGGCACUUGAGGAUCACCCAAGUCAUCGAGACAACAGGCACAGAAGGGUUUAUGG [salish99_ex5_r4_024] (Eterna round: R97, puzzle: Exclusion 5)”, the “apparent KD of MS2 coat protein” value runs as follows: (input ligand: FMN 200 uM) 30.7 nM; (input ligand: none) 38.4 nM.

Consider “CUUUUUGUUGAGGAUAUGCACCAGCUCACUGACGCAGAAGGCGACACAUGAGGAUCACCCAUGUCAGUUCGCGU [salish99_ex6_r004_431] (Eterna round: R97, puzzle: Exclusion 6)”, for which the “apparent KD of MS2 coat protein” value is, setting by setting: (input ligand: FMN 200 uM) 21.5 nM; (input ligand: none) 16.8 nM.

On to “GUCGUGUUAGGAUAUGCAUGUGGACGAUGUUCUCCGCCGGUGUAGAAGGAACAUGAGGAUCACCCAUGUGCCUA [Eternabot (L1) Solution 79] (Eterna round: R97, puzzle: Exclusion 4)”, for which the “apparent KD of MS2 coat protein” value came to 45.6 nM (input ligand: FMN 200 uM) and 52.5 nM (input ligand: none).

Take “AUUAUAUAGAAAGGAUAUAGAAUAUUAUUUUAACAUGAGGAUCACCCAUGUAACCUUAUGUGUAGCUAGAAGGUUCAUUUAUUA [Title] (Eterna round: R96, puzzle: Exclusion NG 2)”: the “apparent KD of MS2 coat protein” value under setting [2] came to 52.5 nM.

For “GAAUAGGCAGGAUAUACAUGAGGAUCACCCAUGUGCCGGCGAAAGGUACGUUCGAAAGGUAGAAGGGCCUAAAC [ChP 13.04.2015 #7] (puzzle: Exclusion 3)”, the “apparent KD of MS2 coat protein” value is, setting by setting: under setting [3], 151 nM; under setting [1], 43.8 nM; under setting [4], 48.9 nM.

Consider “GGUUGACAUGAGGAUCACCCAUGUGAGGAUAUGCGAGAGAAAAAAGUGAGGAAGAAAAGCAGAAGGCGCUGACG [salish99-ex1_r3_002] (puzzle: Exclusion 1)”, for which the “apparent KD of MS2 coat protein” value runs as follows: under setting [3], 15.5 nM; under setting [1], 28.6 nM; under setting [4], 13.5 nM.

Regarding “GCACGGUUGGUAGGAUAUCAUUGCGAUUAGCUAUGAGAAGGACCACAUGAGGAUCACCCAUGUCCUCUAAUUAGCCUGCCGUGC [Eli exng1 - 014] (Eterna round: R96, puzzle: Exclusion NG 1)”, under setting [2], the “apparent KD of MS2 coat protein” value was 118 nM.

With “GCGCGGACAGGAUAUACAUGAGGAUCACCCAUGUGUGAGGCUAACAGUGCCAACUCUGGUAGAAGGGUCCCGGG [EX3 B.19] (Eterna round: R97, puzzle: Exclusion 3)”, the “apparent KD of MS2 coat protein” value is 269 nM (input ligand: FMN 200 uM) and 111 nM (input ligand: none).

On to “GUCUGCACGCUGCGGUCCUACAUGAGGAUCACCCAUGUGGUCUGGUGGCGUGGGUCGCCGGACUUGGCUCGUCUUGG [salish99_S_TOV1_R5_048] (Eterna round: R97, puzzle: Sensor, turn-off variant 1)”, for which the “apparent KD of MS2 coat protein” value worked out at 14.8 nM (input ligand: FMN 200 uM) and 14.7 nM (input ligand: none).

As for “CCAUGCAGUGUGAGGAUAUGCUGGUCCUUGGAUCAGCAGAAGGCACAUGAGGAUCACCCAUGUGAAUAGCGUGG [Mat - Exclusion 4 - JL Mod - D84] (puzzle: Brourd's mod of Exclusion 4)”, the “apparent KD of MS2 coat protein” value under setting [1] amounted to 36.6 nM.

Turning to “CCCGUCGAUGUAGGAUAUGCCCGGGUCUCCCGGGCAGAAGGACAUGAGGAUCACCCAUGUUCGUGAGGAUCACCCAUGAAUGGG [Double but mutated MS2] (Eterna round: R96, puzzle: Exclusion NG 1)”, the “apparent KD of MS2 coat protein” value (input ligand: FMN 200 uM) was found to be 15 nM, the “apparent KD of MS2 coat protein” value under setting [2] came to 13 nM and the “apparent KD of MS2 coat protein” value (input ligand: none) came to 19.4 nM.

Take “AAAAGGUCAGGAUAUGCUUGGCGGAUUCUGGUAUCCAAAUGACAUGAGGAUCACCCAUGUAGAAGGGACAUCAG [Maanlesoge] (Eterna round: R97, puzzle: Exclusion 2)”: the “apparent KD of MS2 coat protein” value by setting is: (input ligand: FMN 200 uM) 21.8 nM; (input ligand: none) 20.6 nM.

Take “UACACUGCAUGAGGAUCAAACAUGAGGAUCACCCAUGUAUAGCAAGCUUUUUGCACGUCUUAUAAUUAUGUAGUGUA [Electric Eye 13 - Jieux - Sensor, turn-off variant 1] (Eterna round: R97, puzzle: Sensor, turn-off variant 1)”: the “apparent KD of MS2 coat protein” value (input ligand: FMN 200 uM) stood at 15.1 nM and the “apparent KD of MS2 coat protein” value (input ligand: none) was found to be 16.2 nM.

Regarding “AAAAAACAUGAGGAUCACCCAUGUCAGGAUAUCCGAAAAGAAAAGAAAAAGAAAAAAGGGAGAAGGGACAAAAA [April's ex-date #2] (puzzle: Exclusion 1)”, the “apparent KD of MS2 coat protein” value is 50.5 nM under setting [3], 42 nM under setting [1] and 33 nM under setting [4].
